Drawing on a protein production outcome set (Wang et al. 2014), this text covers protein production for 20 sequences.
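Note: failed if final PepcDB status was selected cloned or expressed and not failed if soluble or beyond.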

The nature of this data set: label from the status in PepcDB records.
As to “GGVMHYTDKAALPADGEAREVAALFDTWNAALATGNPHKVADLYAPDGVLLPTVSNEVRASREQIENYFEMFLTKKPKGVINYRTVRLLDDDSAVDAGVYTFTLTDKNGKKSDVQARYTFVYEKRDGKWLIINHHSSAMPEVDTATATAAVTKAK”, the protein production result is given as “not failed”.
Take “MKKITIISGHPNHESSISNKAILEYLESNVMESQLNIRKLEDLNTHFEFNVIQEQEALLQADTIIFQFPLFWYSFPALMKKWIDDVICYGFAFGGEKGAQLKDKQFIFSFTIGGQESAYGNEKEIALTIDELLKPLKQMLRYCQVKDINYVYSHNMLYIPDMYGSIEDINVRSECHAIKLLSMVN”: the protein production entry was “failed”.
As for “GIPSLVATAERRMKLVPGSVVMQFASIGFDVAVFELSMALCTGSRLVIVPDESRVAGPELTDFMAAHAVTHAIIPPSLLAALPSGCDVPEGCTVLVGTETVPPELIGRWAERLNLLAAYGLTEATVNNTLWQAQPGWDSAVPIGIP”, the protein production entry was “failed”.
As for “MTHETDQLYQAVQATRPLLRNITAAVERGTLREGVTVGQRAILEGLSLTPGATAPQLGAALQMKRQYISRILQEVQRAGLIERRTNPEHARSHRYWLTPRGEAIITAIRADEMAKLALFSEGFSSVELTAYHKVQLALTRFFADLAKEA”, the entry is “not failed”.
“MKVGIDAGGTLIKIVQESQQGRSYETKLTTNISEVIAWLNANTFESISLTGGNAGVIAENLNVDATIFVEFDASSKGLGMLLKEQGHHIDEYIFANVGTGTSLHYFDGKQQRRVGGVGTGGGMIQGLGYLLSQITDYEALTNLAQSGDRDTIDLKVKHIYKDTEPPIPGELTAANFGNVLHNLDVDFSPANKLASVVGVVGEVITTMAITVARENKTENVVYIGSSFNNNPLLREVIEDYTVLRGFKPYYIENGAFSGALGAIYLN”: the protein production result is “failed”.
The result for “LLALWVSAGELMAASKGAAGFTKATQEVSSYQTPVSNLMKAIAAVIVLVGAFNVYFKMQNGDQDVKKTIMLTIGGCIAFIALSEALPLFF” reads “failed”.
As for “MITLTKEGGPADLDGVTHLSIGVSWDPTAGSSGGVLGKLRRKTGTDLDLIAVAMQGGDPVRLAGLDSLDPMGNGSLLHSGDNQTGHGDGDDETVTVEFARLPSAITSIVFVAAAYKKGSSFQKARNISFKVYDATGGSSEQVADIWPSLLSQDNGCAVAKAVRVGGTWKLEVVNETGKIKQGDEHALMRFAVSK”, the entry is “failed”; as for “MPQFASKAEEKNYYERQASLAEFLTWYHQQELPEYEKPSLTVDMVLLCYNKEADQLKVLLIQRKGHPFRNSWALPGGFVNRNESTEDSVLRETKEETGVVISQENIEQLHSFSRPDRDPRGWVVTVSYLAFIGEEPLIAGDDAKEVHWFNLERHGQHITLSHEDVEITLDLKTAASLGKDTLAFDHSEIIIKAFNRVVDKMEHEPQVLQVLGKDFTITEARKVFAKFLGVDYRSIDHSNFKKAMTQYFEELGERPVGIGRPSKIYQLKTTTGF”, “not failed”.
The result for “MMHPVASSNPAFCGPGKPSCLNEDAMRAADQFDIYSSQQSKYSHTVNHKPMVCQRQDPLNETHLQTTSGRSIEIKDELKKKKNLNRSGKRGRPSGTTKSAGYRTSTGRPLGTTKAAGFKTSPGRPLGTTKAAGYKVSPGRPPGSIKALSRLADLGYGCGTAAFPYPMMHGRAVHGVEETSSEVKPPNE” reads “failed”; that for “MPKKPLIDQLHHEDSWRLFRILAEFVEGFETLSELQVPLVSVFGSARFGEGHPAYEAGYRLGRALAEAGFGVVTGGGPGVMEAVNRGAYEAGGVSVGLNIELPHEQKPNPYQTHALSLRYFFVRKVLFVRYAVGFVFLPGGFGTLDELSEVLVLLQTEKVHRFPVFLLDRGYWEGLVRWLAFLRDQKAVGPEDLQLFRLTDEPEEVVQALKAEAPPR”, “not failed”; that for “MNRINYIRQAEKKYHDLCYEQYKLFETGSWLYKPVKTVMDLMDHFEGQNNLQVLDLGSGVGRNSIPIAQQIQNTSGTVTCVDLLDSALTKLKTYTKEHGVFEVIKTEQAAIENYYIVPNTYDYIVAVSSLEHVQSEEDLTNVLHSIKEGTKTGGINCLIINSNIQEIDLHTKEELDALIEINLPTEDMIHLLKSIYKEWKEIKVEIKELVYDIVRDEKQIQLKTNAITFVVQK”, “failed”.
For “MKLMQIRKPLLKSSLLDQNLTEEEVNMKFVQDLLNWVDEMQVQLDRTEWGSDLPSVESHLENHKNVHRAIEEFESSLKEAKISEIQMTAPLKLSYTDKLHRLESQYAKLLNTSRNQERHLDTLHNFVTRATNELIWLNEKEESEVAYDWSERNSSVARKKSYHAELMRELEQKEESIKAVQEIAEQLLLENHPARLTIEAYRAAMQTQWSWILQLCQCVEQHIQE”, the protein production entry was “not failed”.
The result for “MGEMAPTLVLKNATYLNSVRGKWLDANIWIYQDRIVYVGQDMPAKLDDETEVVDCGQQVIVPGYIEHHAHPFQLYNPHSFANYAAAMGTTTLINDNLEHHHHHH” reads “not failed”; that for “MAGGLGKCSKIRHIVRLRQMLRRWRDQARMSSSFSRCVPSDVPSGHVAVYVGSSCRRFVVRATYLNHPVLRNLLVQAEEEFGFVNQGPLVIPCEESVFEESIRFISRSDSTRSRRFTCPDDFQKNCHVVGIRSKLDLWIESRPLLHGVTEKAVW”, “failed”.
The result for “HIQKGIAGEQKACAFLEQQGYKIIEKNLRIGKGEIDLIAVHNNCMCFIEVKYRKHNRYGFPEEFVTQKKLLKIQETAEAYIYTVNWQGRIRFDVVAITGEELPVHL” reads “failed”; that for “MRVEVFPVEGLPLIKEGDDLAELISSRVRFEDGDVLVVCSTVISKAEGRIRRLEEFNPSERAKEIAARIGKPAEFVQAVLEESEEVLLDFPFLLVKAKFGNVCVNAGIDASNVEEGSLLLPPLDPDGSAEKLRRRILELTGKRVGVIITDTNGRCFRRGVVGFAIGISGVKAMKDWIGRKDLYGRELEVTVECVADEIAAFANLLMGEGGDGIPAVVVRGLNVAGEGSMEEIYRSEEEDVIRRCLKRCL”, “not failed”; that for “MKNRFAMMLMALLPVLVACQAKDGSADTVQSAVPAPSAPPSSSTATTTPTTPPPESARPVEASRVPSGPKPVAGTDYVVIQDGQQFQPVSGKVEVVEVFGYICPACFQFQPQIALWKAGLASDVNFVYVPAVFGGPWDDYARAFYAAETLNLQEKTHQQLYKAIHVDRTLKGERGRDTVQDIANFYAKFGVNPEQFVNTMSSFGISAKVNRAKQFAKHSQVTGTPSLIINGKYLVKGRTYDDMLRIADHLIEGERKVLGK”, “failed”.
The result for “MSASAHIAQPDTRQQSRSDTPQAVAALAGRVLLSAIFLLSGVSKLAAPAMMIGYIGSVGLPFPQLALALAVIVEIGGGLALVAGWRTRTVAALLALFSVVTALAFHNALGDQNQFIHFFKNLAMAGGLLQVVAFGAGRFSLDARRR” reads “failed”.
As for “SNRMTEMHVCLADAIQKDNRPEISNRLFRSNAVEKEILRVQKLLKNAKLAWMFTNCFPNTLDTTVHFRKGSDGKPDTFVYTGDIHAMWLRDSGAQVWPYVQLANSDPELKEMLAGVILRQFKCINIDPYANAFNDGAIPDGHWMSDLTDMKPELHERKWEIDSLCYPLRLAYHYWKTTGDASIFNEEWIQAITNVLKTFKEQQRKDGVGPYKFQRKTERALDTVSNDGLGAPVKPVGLIVSSFRPSDDATTLQFLVPSNFFAVSSLRKAAEILEKVNKKTALSKECKDLAQEVETALKKYAVYNHPKYGKIYAFEVDGFGNHHLMDDANVPSLLAMPYLGDVNVNDPIYQNTRRFVWSEDNPYFFKGKAGEGIGGPHIGYDMVWPMSIMMKAFTSQNDAEIKTCIKMLMDTDAGTGFMHESFHKDNPKKFTRAWFAWQNTLFGELILKLVNEGKVDLLNSIQ”, the protein production entry was “not failed”.
The result for “MLGGQYYLIAFILAVIVVWFTTPLINHWGRRAGYVDQPSARKMHHRPMVRLGGVSIFLGSLVALLVVWNLGAFGAMSTKGEWEVWGVVLGGLAFFGIGLFDDLFDLSPFSRLLAQVAIASVVWNMGVRIDFFTLPFLGNLVYLNILSLPITVIWLVGLANAINWIDGLDGLAAGVCGIAAVVLFVLCLFMEQSEAALIAAALAGGALGFLRYNFNPAQIFMGDGGAYFMGFTLGAVAVIGLVKVAAMATVAVTAVLLPYLVLAVPILDMSVVILSRVIKGKSPFKADKGHLHHRLINAGISHRLTVLFIYALTLWAGSLALGFSNIPSGWGFAIGATVLLIYLGWQVWRNSRNVGEQD” reads “failed”.
